Measured values as given in the Human Domainome abundance scans (Beltran et al. 2025).
± gives the uncertainty stated by the source.

Experiment: abundance fitness (aPCA) (normalised: wild type 0, dead -1); higher = more abundant; growth selection in yeast, the domain comes from the species named
Conditions: Homo sapiens

Row | Substance | abundance fitness
1 | SAFB-like transcription modulator R26V, Q9NWH9 | -0.365 ± 0.085
2 | BAG family molecular chaperone regulator 3 N16Q, O95817 | 0.465 ± 0.17
3 | BAG family molecular chaperone regulator 3 S56M, O95817 | 0.083 ± 0.12
4 | SAFB-like transcription modulator L48G, Q9NWH9 | -0.472 ± 0.054
5 | BAG family molecular chaperone regulator 3 P21K, O95817 | 0.439 ± 0.059
6 | SAFB-like transcription modulator L30D, Q9NWH9 | -0.65 ± 0.083
7 | SAFB-like transcription modulator K53R, Q9NWH9 | 0.05 ± 0.059
8 | BAG family molecular chaperone regulator 3 S44L, O95817 | -0.246 ± 0.17
9 | BAG family molecular chaperone regulator 3 N50C, O95817 | 0.032 ± 0.13
10 | SAFB-like transcription modulator I66Q, Q9NWH9 | -0.004 ± 0.11
11 | SAFB-like transcription modulator K45W, Q9NWH9 | -0.293 ± 0.054
12 | SAFB-like transcription modulator E67M, Q9NWH9 | -0.308 ± 0.092
13 | SAFB-like transcription modulator E33C, Q9NWH9 | -0.68 ± 0.1
14 | BAG family molecular chaperone regulator 3 F39Q, O95817 | -0.633 ± 0.5
15 | BAG family molecular chaperone regulator 3 A13V, O95817 | 0.328 ± 0.087
16 | BAG family molecular chaperone regulator 3 G35T, O95817 | -0.006 ± 0.11
17 | BAG family molecular chaperone regulator 3 P23I, O95817 | -0.612 ± 0.22
18 | SAFB-like transcription modulator L68T, Q9NWH9 | -0.135 ± 0.065
19 | BAG family molecular chaperone regulator 3 W26F, O95817 | 0.4 ± 0.21
20 | SAFB-like transcription modulator L30W, Q9NWH9 | -0.748 ± 0.098
21 | BAG family molecular chaperone regulator 3 E57V, O95817 | -0.721 ± 0.21
22 | SAFB-like transcription modulator V27D, Q9NWH9 | -0.127 ± 0.12
23 | BAG family molecular chaperone regulator 3 P55H, O95817 | -0.636 ± 0.46

Row | Substance | abundance fitness
24 | SAFB-like transcription modulator I22Q, Q9NWH9 | -0.606 ± 0.093
25 | SAFB-like transcription modulator L30R, Q9NWH9 | -0.949 ± 0.056
26 | BAG family molecular chaperone regulator 3 N50E, O95817 | 0.063 ± 0.096
27 | SAFB-like transcription modulator G60V, Q9NWH9 | -0.515 ± 0.04
28 | BAG family molecular chaperone regulator 3 R53K, O95817 | -0.424 ± 0.28
29 | BAG family molecular chaperone regulator 3 P32W, O95817 | -0.316 ± 0.095
30 | BAG family molecular chaperone regulator 3 I28P, O95817 | -0.713 ± 0.28
31 | BAG family molecular chaperone regulator 3 P32N, O95817 | 0.039 ± 0.29
32 | SAFB-like transcription modulator N65P, Q9NWH9 | -0.575 ± 0.036
33 | BAG family molecular chaperone regulator 3 N16A, O95817 | 0.423 ± 0.079
34 | BAG family molecular chaperone regulator 3 D41G, O95817 | -0.621 ± 0.14
35 | BAG family molecular chaperone regulator 3 G58L, O95817 | -0.211 ± 0.2
36 | BAG family molecular chaperone regulator 3 P52A, O95817 | -0.727 ± 0.16
37 | BAG family molecular chaperone regulator 3 D51A, O95817 | -0.682 ± 0.12
38 | BAG family molecular chaperone regulator 3 T34W, O95817 | -0.179 ± 0.083
39 | BAG family molecular chaperone regulator 3 V12F, O95817 | 0.051 ± 0.19
40 | SAFB-like transcription modulator I41S, Q9NWH9 | -0.01 ± 0.042
41 | BAG family molecular chaperone regulator 3 P24M, O95817 | -0.662 ± 0.21
42 | BAG family molecular chaperone regulator 3 G15T, O95817 | 0.856 ± 0.082
43 | BAG family molecular chaperone regulator 3 T34C, O95817 | -0.073 ± 0.13
44 | BAG family molecular chaperone regulator 3 V40L, O95817 | -0.664 ± 0.084
45 | BAG family molecular chaperone regulator 3 Q33V, O95817 | -0.428 ± 0.068
46 | BAG family molecular chaperone regulator 3 D41W, O95817 | -1.16 ± 0.44

Row | Substance | abundance fitness
47 | SAFB-like transcription modulator T23P, Q9NWH9 | -0.339 ± 0.031
48 | BAG family molecular chaperone regulator 3 I28T, O95817 | -0.636 ± 0.29
49 | BAG family molecular chaperone regulator 3 H42M, O95817 | -0.37 ± 0.11
50 | SAFB-like transcription modulator E57H, Q9NWH9 | 0.063 ± 0.16
51 | SAFB-like transcription modulator S32V, Q9NWH9 | -0.023 ± 0.051
52 | BAG family molecular chaperone regulator 3 T47D, O95817 | -0.679 ± 0.42
53 | SAFB-like transcription modulator V44I, Q9NWH9 | -0.057 ± 0.054
54 | BAG family molecular chaperone regulator 3 F39L, O95817 | -0.528 ± 0.14
55 | SAFB-like transcription modulator E59Q, Q9NWH9 | -0.336 ± 0.078
56 | SAFB-like transcription modulator V44D, Q9NWH9 | 0.055 ± 0.072
57 | SAFB-like transcription modulator I22C, Q9NWH9 | -0.347 ± 0.05
58 | BAG family molecular chaperone regulator 3 E27V, O95817 | -0.96 ± 0.25
59 | BAG family molecular chaperone regulator 3 R45V, O95817 | -0.692 ± 0.091
60 | BAG family molecular chaperone regulator 3 P37D, O95817 | 0.447 ± 0.16
61 | BAG family molecular chaperone regulator 3 E27A, O95817 | -0.617 ± 0.18
62 | BAG family molecular chaperone regulator 3 S56G, O95817 | -0.011 ± 0.063
63 | SAFB-like transcription modulator V47K, Q9NWH9 | 0.003 ± 0.063
64 | SAFB-like transcription modulator L68F, Q9NWH9 | -0.164 ± 0.09
65 | BAG family molecular chaperone regulator 3 H42C, O95817 | -0.457 ± 0.33
66 | BAG family molecular chaperone regulator 3 Q33Y, O95817 | -0.545 ± 0.46
67 | BAG family molecular chaperone regulator 3 T47M, O95817 | -0.564 ± 0.24
68 | SAFB-like transcription modulator N38D, Q9NWH9 | -0.222 ± 0.086
69 | SAFB-like transcription modulator E33W, Q9NWH9 | -0.871 ± 0.1
